Measured values taken from US20250361274A1, “PEPTIDE AND PEPTIDE-CONTAINING AGENT” (PEPTIDREAM INC., priority 2022, published 2025).
Numbered stars: 1 amine (or outer) side, 2 acyl side, 3 side chain; on linkers, the order of the positions; unused ones are H or OH. Bridge positions count the residues as written; N and C are the ends. Square brackets hold non-standard residues; d marks the D form. Ends that are not written are not given here. KCOpipzaa = N6-(4-(carboxymethyl)piperazine-1-carbonyl)-L-lysine, O=C(NCCCC[C@H](N[*:1])C(=O)[*:2])N1CCN(CC(=O)[*:3])CC1; Bph3C = (S)-2-amino-3-(3'-chloro-[1,1'-biphenyl]-4-yl)propanoic acid, O=C([C@H](Cc1ccc(-c2cccc(Cl)c2)cc1)N[*:1])[*:2]; F42Py = (S)-2-amino-3-[4-(pyridin-2-yl)phenyl]propanoic acid, O=C([C@H](Cc1ccc(-c2ccccn2)cc1)N[*:1])[*:2]; 3Pal(6-Ph) = N[C@@H](Cc1ccc(-c2ccccc2)nc1)C(=O)O; Phe(4-COOH) = N[C@@H](Cc1ccc(C(=O)O)cc1)C(=O)O; NMePhe(4-Me) = CN[C@@H](Cc1ccc(C)cc1)C(=O)O; Bip = N[C@@H](Cc1ccc(-c2ccccc2)cc1)C(=O)O; Phe(4-F) = N[C@@H](Cc1ccc(F)cc1)C(=O)O; hTyr = N[C@@H](CCc1ccc(O)cc1)C(=O)O; Hyp = O=C(O)[C@@H]1C[C@@H](O)CN1; NMeF = CN[C@@H](Cc1ccccc1)C(=O)O; 3Pal = N[C@@H](Cc1cccnc1)C(=O)O; 4Pal = N[C@@H](Cc1ccncc1)C(=O)O; Aad = N[C@@H](CCCC(=O)O)C(=O)O; Cha = N[C@@H](CC1CCCCC1)C(=O)O; Abu = CC[C@H](N)C(=O)O; βAla = NCCC(=O)O

How the values were obtained:
BMP7 = target: T1, BMP7 (Homo sapiens, UniProt P18075); experiment: BMP7 signal transduction inhibitory activity: SMAD1 phosphorylation by BMP7 stimulus, A549 cells; type: cell-based; conditions: for aLIZA BMP7 (10 nM) % inh / aLIZA BMP7 (10 nM) % Inh: class symbols; for aLISA BMP7: inhibition of SMAD1 phosphorylation by BMP7 stimulus, A549 cells; for aLIZA BMP7 (10 nM) % Inh: SMAD1 phosphorylation by BMP7 stimulus
T1 sequence (P18075 293-431): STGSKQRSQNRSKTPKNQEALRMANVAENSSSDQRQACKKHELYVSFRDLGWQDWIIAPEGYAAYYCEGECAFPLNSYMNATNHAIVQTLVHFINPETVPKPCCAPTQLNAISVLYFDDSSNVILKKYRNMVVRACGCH
Summary of the method: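 SMAD1 phosphorylation readout in A549 cells stimulated with BMP7 (10 nM). Peptides were tested at three levels (e.g. 1/10/100, 10/100/1,000, 100/300/1,000, 10/30/90 nM) or at eight points, 1/3 steps, from 100 or 1,000 nM. Recombinant Noggin served as positive control at matching concentrations.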

BMP4 = target: T2, BMP4 (Homo sapiens, UniProt P12644); experiment: BMP4 signal transduction inhibitory activity: SMAD1 phosphorylation by BMP4 stimulus, AlphaLISA SureFire, A549 cells; type: cell-based; conditions: for aLIZA BMP4 (0.2 nM) % inh / aLIZA BMP4 (0.2 nM) % Inh: peptide conc. in assay 0.02, 0.2, 2 nM, class symbols; for aLISA BMP4: inhibition of SMAD1 phosphorylation by BMP4 stimulus, A549 cells; for aLIZA BMP4 (0.2 nM) % Inh: SMAD1 phosphorylation by BMP4 stimulus
T2 sequence (P12644 293-408): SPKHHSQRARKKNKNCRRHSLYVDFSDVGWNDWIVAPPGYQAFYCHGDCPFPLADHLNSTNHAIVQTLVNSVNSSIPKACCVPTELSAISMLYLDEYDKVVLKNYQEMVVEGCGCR

[1] = BMP7 10 nM stimulus, peptide conc. in assay 10, 100, 1000 nM
[2] = AlphaLISA, class by peptide concentration zone
[3] = peptides of Synthesis 2, classes A-D, ND
[4] = peptides of Synthesis 2, classes A-C, ND
[5] = SMAD1 phosphorylation, BMP7 10 nM, peptide conc. in assay 1, 10, 100 nM
[6] = SMAD1 phosphorylation, BMP4 0.2 nM, peptide conc. in assay 0.2, 2, 20 nM
[7] = peptide conc. in assay 10, 100, 1000 nM
[8] = BMP7 10 nM stimulus, peptide conc. in assay 1, 10, 100 nM
[9] = BMP4 0.2 nM stimulus, peptide conc. in assay 0.2, 2, 20 nM

## 303 (ERV[Phe(4-COOH)]V[KCOpipzaa]R[Bph3C][KCOpipzaa]Y[Hyp][Bip]Y[Phe(4-COOH)][Phe(4-COOH)]SCG-NH2; not fully specified (N-terminus, bridges); also: cyclic peptide, ring closure not given here) [compound 303]
BMP7; [1]
  aLIZA BMP7 (10 nM) % inh: E (showed less than 30% of inhibitory activity in 100 nM-addition zone and showed 30% or more of inhibitory activity in 1,000 nM-addition zone)
BMP4; BMP4 0.2 nM stimulus
  aLIZA BMP4 (0.2 nM) % inh: C (showed less than 30% of inhibitory activity in 0.2 nM-addition zone and showed 30% or more of inhibitory activity in 2 nM-addition zone)

## 273 (ERV[Phe(4-COOH)]VDR[3Pal(6-Ph)][KCOpipzaa]YV[Bip][4Pal][Phe(4-COOH)][Phe(4-COOH)]SCG-NH2; not fully specified) [compound 273]
BMP7; [1]
  aLIZA BMP7 (10 nM) % inh: ND (the inhibitory activity was less than 30% at the maximum concentration evaluated)
BMP4; BMP4 0.2 nM stimulus
  aLIZA BMP4 (0.2 nM) % inh: C (showed less than 30% of inhibitory activity in 0.2 nM-addition zone and showed 30% or more of inhibitory activity in 2 nM-addition zone)

## 78 ({CH2CO}-ERVYVDR[Bip][KCOpipzaa]YP[Bip][Phe(4-F)][Phe(4-COOH)][4Pal]SCG-NH2; thioether N-17; not fully specified) [compound 78]
BMP7; [2]
  aLISA BMP7: C (showed less than 50% of inhibitory activity in 10 nM-addition zone and showed 50% or more of inhibitory activity in 100 nM-addition zone)
BMP4; [2]
  aLISA BMP4: A (showed an inhibitory activity of 50% or more in a zone to which the peptide was added to in an amount of 0.2 nM)

## 115 (EKVYVKRFPYPFYFFSCG; not fully specified; MOD_RES 2 K represents N6-(4-(Carboxymethyl) piperazine-1-carbonyl)-L-lysine(KCOpipzaa); MOD_RES 6 K represents N6-(4-(Carboxymethyl) piperazine-1-carbonyl)-L-lysine(KCOpipzaa); MOD_RES 8 F represents (S)-3-(1,1'-Biphenyl-4-yl)-2-aminopropanoic acid(Bph); MOD_RES 12 F represents (S)-3-(1,1'-Biphenyl-4-yl)-2-aminopropanoic acid(Bph); MOD_RES 14 F represents (S)-4-(2-amino-2-carboxyethyl)benzoic aci) [compound 115]
BMP7; [3]
  aLISA BMP7: C (showed less than 50% of inhibitory activity in 10 nM-addition zone and showed 50% or more of inhibitory activity in 100 nM-addition zone)
BMP4; [4]
  aLISA BMP4: A (showed an inhibitory activity of 50% or more in a zone to which the peptide was added to in an amount of 0.2 nM)

## 376 (FG[NMeF]G[3Pal]GDD[Cha]A[NMeF]LHCG-NH2; not fully specified) [compound 376]
BMP7; BMP7 10 nM stimulus, peptide conc. in assay 10, 30, 90 nM
  aLISA BMP7 (10 nM) % inh: G (showed less than 30% of inhibitory activity in 30 nM-addition zone and showed 30% or more of inhibitory activity in 90 nM-addition zone)
BMP4; BMP4 0.2 nM stimulus, peptide conc. in assay 2, 20, 200 nM
  aLISA BMP4 (0.2 nM) % inh: ND (the inhibitory activity was less than 30% at the maximum concentration evaluated)

## 327 (FG[NMeF]G[F42Py]GDD[Cha]A[NMeF]LHCG-NH2; not fully specified) [compound 327]
BMP7; [5]
  aLISA BMP7 (10 nM) % inh: D (showed less than 30% of inhibitory activity in 10 nM-addition zone and showed 30% or more of inhibitory activity in 100 nM-addition zone)
BMP4; [6]
  aLISA BMP4 (0.2 nM) % inh: A (showed less than 30% of inhibitory activity in 2 nM-peptide-addition zone and showed 30% or more of inhibitory activity in 20 nM-addition zone)

## 256 (ERV[Phe(4-F)]VSR[3Pal(6-Ph)]SYV[Bip][4Pal][Phe(4-COOH)][Phe(4-COOH)]SCG-NH2; not fully specified) [compound 256]
BMP7; [7]
  aLIZA BMP7 (10 nM) % Inh: ND (the inhibitory activity was less than 30% at the maximum concentration evaluated)
BMP4
  aLIZA BMP4 (0.2 nM) % Inh: C (showed less than 30% of inhibitory activity in 0.2 nM-addition zone and showed 30% or more of inhibitory activity in 2 nM-addition zone)

## 278 (E[KCOpipzaa]V[Phe(4-COOH)]V[KCOpipzaa]R[3Pal(6-Ph)][KCOpipzaa]Y[Hyp][Bip][4Pal][Phe(4-COOH)][Phe(4-COOH)]SCG-NH2; not fully specified) [compound 278]
BMP7; BMP7 10 nM stimulus, peptide conc. in assay 100, 300, 1000 nM
  aLIZA BMP7 (10 nM) % inh: ND (the inhibitory activity was less than 30% at the maximum concentration evaluated)
BMP4; BMP4 0.2 nM stimulus
  aLIZA BMP4 (0.2 nM) % inh: C (showed less than 30% of inhibitory activity in 0.2 nM-addition zone and showed 30% or more of inhibitory activity in 2 nM-addition zone)

## 330 (FG[NMeF][dA][Bip]GDD[Cha]A[NMeF]LHCG-NH2; not fully specified (N-terminus, bridges)) [compound 330]
BMP7; [5]
  aLISA BMP7 (10 nM) % inh: D (showed less than 30% of inhibitory activity in 10 nM-addition zone and showed 30% or more of inhibitory activity in 100 nM-addition zone)
BMP4; [6]
  aLISA BMP4 (0.2 nM) % inh: ND (the inhibitory activity was less than 30% at the maximum concentration evaluated)

## 331 (FG[NMeF][dS][Bip]GDD[Cha]A[NMeF]LHCG-NH2; not fully specified (N-terminus, bridges)) [compound 331]
BMP7; [5]
  aLISA BMP7 (10 nM) % inh: D (showed less than 30% of inhibitory activity in 10 nM-addition zone and showed 30% or more of inhibitory activity in 100 nM-addition zone)
BMP4; [6]
  aLISA BMP4 (0.2 nM) % inh: ND (the inhibitory activity was less than 30% at the maximum concentration evaluated)

## 243 (ERVYVDR[3Pal(6-Ph)]SYV[Bip]Y[Phe(4-COOH)][Phe(4-COOH)]SCG-NH2) [compound 243]
BMP7; [7]
  aLIZA BMP7 (10 nM) % Inh: E (showed less than 30% of inhibitory activity in 100 nM-addition zone and showed 30% or more of inhibitory activity in 1,000 nM-addition zone)
BMP4
  aLIZA BMP4 (0.2 nM) % Inh: C (showed less than 30% of inhibitory activity in 0.2 nM-addition zone and showed 30% or more of inhibitory activity in 2 nM-addition zone)

## 328 (FG[NMeF]G[3Pal(6-Ph)]GDD[Cha]A[NMeF]LHCG-NH2; not fully specified (N-terminus, bridges)) [compound 328]
BMP7; [5]
  aLISA BMP7 (10 nM) % inh: D (showed less than 30% of inhibitory activity in 10 nM-addition zone and showed 30% or more of inhibitory activity in 100 nM-addition zone)
BMP4; [6]
  aLISA BMP4 (0.2 nM) % inh: ND (the inhibitory activity was less than 30% at the maximum concentration evaluated)

## 398 ([Phe(4-F)]G[NMePhe(4-Me)]G[Bip]GDD[Cha]A[NMePhe(4-Me)]LHCG-NH2; not fully specified) [compound 398]
BMP7; [8]
  aLISA BMP7 (10 nM) % inh: D (showed less than 30% of inhibitory activity in 10 nM-addition zone and showed 30% or more of inhibitory activity in 100 nM-addition zone)
BMP4; [9]
  aLISA BMP4 (0.2 nM) % inh: A (showed less than 30% of inhibitory activity in 2 nM-peptide-addition zone and showed 30% or more of inhibitory activity in 20 nM-addition zone)

## 402 (FG[NMeF]G[Bip]GDE[Cha][Aad][NMeF]L[Abu]CG-NH2; not fully specified) [compound 402]
BMP7; [8]
  aLISA BMP7 (10 nM) % inh: C (showed less than 30% of inhibitory activity in a zone to which the peptide was added in an amount of 1 nM and showed 30% or more of inhibitory activity in 10 nM-addition zone)
BMP4; [9]
  aLISA BMP4 (0.2 nM) % inh: ND (the inhibitory activity was less than 30% at the maximum concentration evaluated)

## 122 ({CH2CO}-ERV[Phe(4-COOH)]V[KCOpipzaa]R[Bip]PYP[Bip]Y[Phe(4-COOH)][Phe(4-COOH)]SC[βAla][dE]-OH; thioether N-17; not fully specified) [compound 122]
BMP7; [3]
  aLISA BMP7: C (showed less than 50% of inhibitory activity in 10 nM-addition zone and showed 50% or more of inhibitory activity in 100 nM-addition zone)
BMP4; [4]
  aLISA BMP4: A (showed an inhibitory activity of 50% or more in a zone to which the peptide was added to in an amount of 0.2 nM)

## 92 ({CH2CO}-EKVYVDK[Bip]YYV[Bip][Phe(4-F)][Phe(4-COOH)][4Pal]SCG-NH2; thioether N-17; not fully specified) [compound 92]
BMP7; [3]
  aLISA BMP7: C (showed less than 50% of inhibitory activity in 10 nM-addition zone and showed 50% or more of inhibitory activity in 100 nM-addition zone)
BMP4; [4]
  aLISA BMP4: C (showed an inhibitory activity of less than 50% in 0.2 nM-addition zone and showed an inhibitory activity of 50% or more in 2 nM-addition zone were defined as B or C)

## 254 (ERVYVSR[3Pal(6-Ph)]S[hTyr]V[Bip]Y[Phe(4-COOH)][Phe(4-COOH)]SCG-NH2; not fully specified) [compound 254]
BMP7; [7]
  aLIZA BMP7 (10 nM) % Inh: ND (the inhibitory activity was less than 30% at the maximum concentration evaluated)
BMP4
  aLIZA BMP4 (0.2 nM) % Inh: C (showed less than 30% of inhibitory activity in 0.2 nM-addition zone and showed 30% or more of inhibitory activity in 2 nM-addition zone)
